Data as given in article PMC4969796 (The Journal of General Physiology, 2016).

Target: the molecule itself
Assay: SDS-PAGE

B1: L24C/R117C KcsA (before chymotrypsin) (natural protein)
chain: MPPMLSGLLARLVKLLLGRHGSACHWRAAGAATVLLVIVLLAGSYLAVLAERGAPGAQLITYPRALWWSVETATTVGYGDLYPVTLWGRLVAVVVMVAGITSFGLVTAALATWFVGCEQERRGHFVRHSEKAAEEAYTRTTRALHERFDRLERMLDDNRR
- stoichiometry N: 4
